In patent US20110126301A1 (WALTER AND ELIZA HALL INSTITUTE OF MEDICAL RESEARCH, published 2011):
One block for each binder: values may come before it.

What was measured:
[1] = molecular target: T1, human 5B6 (CLEC9A), membrane bound (human, UniProt Q6UXN8 1-241); experiment: flow cytometry on transiently transfected 293T cells; anti-FLAG 9H10-biotin and streptavidin-PE
T1 construct: Full length on transfectant cells or native on human blood BDCA-3+ DC; also called h5B6; HEEE9341
Source text: To identify binding partners for the 5B6 molecule, the inventors generated soluble FLAG-tagged m5B6 and h5B6 which encompassed the ectodomain of 5B6 including the stalk region and the C-type lectin-like domain (CTLD), denoted in FIG. 11A as “Original (with stalk)”. A soluble FLAG-tagged ectodomain version of the C-type lectin Cire was also generated as a control molecule. […] Thus, soluble 5B6 can interact with membrane bound 5B6 in a cross-species manner.

[2] = molecular target: T1, human 5B6 (CLEC9A), membrane bound; experiment: flow cytometry on cells expressing 5B6

T1 sequence (Q6UXN8 whole entry): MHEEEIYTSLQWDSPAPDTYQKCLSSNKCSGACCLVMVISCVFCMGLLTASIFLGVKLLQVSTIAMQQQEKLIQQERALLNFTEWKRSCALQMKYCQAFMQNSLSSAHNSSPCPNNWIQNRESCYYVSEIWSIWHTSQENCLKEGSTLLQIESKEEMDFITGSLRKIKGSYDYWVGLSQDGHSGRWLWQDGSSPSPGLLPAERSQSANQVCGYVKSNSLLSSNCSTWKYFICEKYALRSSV

binding result [1]: binds
B1: soluble FLAG-tagged human 5B6 including stalk (receptor)
chain: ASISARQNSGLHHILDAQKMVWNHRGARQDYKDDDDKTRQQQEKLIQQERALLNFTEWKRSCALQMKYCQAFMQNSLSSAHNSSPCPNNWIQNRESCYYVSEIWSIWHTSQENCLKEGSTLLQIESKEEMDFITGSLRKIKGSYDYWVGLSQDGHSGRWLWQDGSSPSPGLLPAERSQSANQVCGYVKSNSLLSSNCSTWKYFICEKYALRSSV
notes: also called soluble h5B6; soluble human 5B6

binding result [1]: binds
B2: soluble FLAG-tagged mouse 5B6 including stalk (receptor)
chain: ASISARQNSGLHHILDAQKMVWNHRGARQDYKDDDDKTREQQERLIQQDTALVNLTQWQRKYTLEYCQALLQRSLHSGTDASTGPVLLTSPQMVPQTLDSKETGSDCSPCPHNWIQNGKSCYYVFERWEMWNISKKSCLKEGASLFQIDSKEEMEFISSIGKLKGGNKYWVGVFQDGISGSWFWEDGSSPLSDLLPAERQRSAGQICGYLKDSTLISDKCDSWKYFICEKKAFGSCI
notes: also called soluble m5B6; soluble mouse 5B6

binding result [2]: binds
B3: rat mAb 24/04-10B4 (anti-5B6 / anti-Clec9A antibody) (antibody, V domains shown)
VH: AVQIVESGGGLVQPKESLKISCTASGFTFSNAAIYWVRQTPGKGLEWVGRIRTRPSKYATDYADSVRGRFTISRDDSKSMVYLQMDNLRTEDTAMYYCTPRATEDVPFYWGQGVMVTVSS
VL: DIVMTQTPSSQAVSAGEKVTMNCKSSQSVLYDENKKNYLAWYQQKSGQSPKLLIYWASTGESGVPDRFIGSGSGTDFTLTISSVQAEDLAVYYCQQYYDFPPTFGGGTKLELKR
notes: Rat IgG2a, kappa, from hybridoma 24/04-10B4 (peptide immunisation); Used biotinylated or APC-conjugated in flow cytometry; also called anti-m5B6 mAb; anti-5B6 mAb
